B1: HER2/neu peptide, position 706, 10 amino acids (peptide)
peptide: MPNQAQMRIL
notes: T0001 prints N at residue 706; also called Her2/neu.706
B2: HER2/neu peptide, position 706, 9 amino acids (peptide)
peptide: MPNQAQMRI
notes: as for B1
B3: HER2/neu peptide, position 701, 10 amino acids (peptide)
peptide: TPSGAMPNQA
notes: T0001 prints N at residue 706; also called Her2/neu.701

For the assay, the target named is T1, HLA-B*0702 (human).
T1 construct: also called B7 supertype prototype molecule
The assay is described as follows: inhibition of 125I standard peptide binding to purified HLA.
For the molecule QPPSPREGPL (also called Her2/neu.1148) [HER2/neu peptide, position 1148, 10 amino acids], the relative binding ratio was 0.0014 ratio to standard peptide.
Regarding SPLDSTFY (also called Her2/neu.998) [HER2/neu peptide, position 998, 8 amino acids], the relative binding ratio is -0.0006 ratio to standard peptide.
For QPEYVNQPDV (also called Her2/neu.1136) [HER2/neu peptide, position 1136, 10 amino acids] the value was 0.0001 ratio to standard peptide; for SPETHLDML (also called Her2/neu.38) [HER2/neu peptide, position 38, 9 amino acids], 0.0005 ratio to standard peptide.
Under VPLPSETDGY (also called Her2/neu.1118) [HER2/neu peptide, position 1118, 10 amino acids] stands 0.0001 ratio to standard peptide.
For the molecule NPEYLGLDVPV (also called Her2/neu.1245) [HER2/neu peptide, position 1245, 11 amino acids], the relative binding ratio is -0.0002 ratio to standard peptide.
Under QPHPPPAF (also called Her2/neu.1206) [HER2/neu peptide, position 1206, 8 amino acids] stands 0.0002 ratio to standard peptide; under SPAFDNLY (also called Her2/neu.1214) [HER2/neu peptide, position 1214, 8 amino acids], -0.0002 ratio to standard peptide.
Under RPRFRELV (also called Her2/neu.966) [HER2/neu peptide, position 966, 8 amino acids] stands 0.041 ratio to standard peptide; under SPREGPLPA (also called Her2/neu.1151) [HER2/neu peptide, position 1151, 9 amino acids], 0.64 ratio to standard peptide; under SPLDSTFYRSL (also called Her2/neu.998) [HER2/neu peptide, position 998, 11 amino acids], 0.064 ratio to standard peptide.
For SPNHVKITDF (also called Her2/neu.855) [HER2/neu peptide, position 855, 10 amino acids] the value was 0.0016 ratio to standard peptide.
In the case of RPRFRELVSEF (also called Her2/neu.966) [HER2/neu peptide, position 966, 11 amino acids], the relative binding ratio is 1.3 ratio to standard peptide.
For SPAFDNLYY (also called Her2/neu.1214) [HER2/neu peptide, position 1214, 9 amino acids] the value was 0.0001 ratio to standard peptide; for B1, 0.049 ratio to standard peptide.
In the case of VPIKWMAL (also called Her2/neu.884) [HER2/neu peptide, position 884, 8 amino acids], the relative binding ratio is 1.4 ratio to standard peptide.
For PPPAFSPA (also called Her2/neu.1209) [HER2/neu peptide, position 1209, 8 amino acids] the value was -0.0002 ratio to standard peptide; for SPGKNGVVKDV (also called Her2/neu.1174) [HER2/neu peptide, position 1174, 11 amino acids], -0.0002 ratio to standard peptide; for QPEQLQVFETL (also called Her2/neu.393) [HER2/neu peptide, position 393, 11 amino acids], -0.0002 ratio to standard peptide.
Under SPYVSRLL (also called Her2/neu.779) [HER2/neu peptide, position 779, 8 amino acids] stands 0.044 ratio to standard peptide; under QPEQLQVF (also called Her2/neu.393) [HER2/neu peptide, position 393, 8 amino acids], -0.0002 ratio to standard peptide; under NPHQALLHTA (also called Her2/neu.488) [HER2/neu peptide, position 488, 10 amino acids], 0.0005 ratio to standard peptide.
Regarding QPPICTIDVY (also called Her2/neu.943) [HER2/neu peptide, position 943, 10 amino acids], the relative binding ratio is 0.0001 ratio to standard peptide.
Under SPETHLDM (also called Her2/neu.38) [HER2/neu peptide, position 38, 8 amino acids] stands 0.0014 ratio to standard peptide.
For PPAFSPAF (also called Her2/neu.1210) [HER2/neu peptide, position 1210, 8 amino acids] the value was -0.0002 ratio to standard peptide; for NPEYLGLDV (also called Her2/neu.1245) [HER2/neu peptide, position 1245, 9 amino acids], 0.0001 ratio to standard peptide; for NPEGRYTFGA (also called Her2/neu.284) [HER2/neu peptide, position 284, 10 amino acids], 0.0001 ratio to standard peptide.
Under PPAFSPAFDNL (also called Her2/neu.1210) [HER2/neu peptide, position 1210, 11 amino acids] stands -0.0002 ratio to standard peptide; under SPKANKEI (also called Her2/neu.760) [HER2/neu peptide, position 760, 8 amino acids], 0.058 ratio to standard peptide.
PPICTIDVY (also called Her2/neu.944) [HER2/neu peptide, position 944, 9 amino acids]: the relative binding ratio was 0.0001 ratio to standard peptide.
On to SPLTSIISAVV (also called Her2/neu.649) [HER2/neu peptide, position 649, 11 amino acids], for which the relative binding ratio was 0.025 ratio to standard peptide.
For VPIKWMALESI (also called Her2/neu.884) [HER2/neu peptide, position 884, 11 amino acids] the value was 0.0017 ratio to standard peptide; for NPEGRYTF (also called Her2/neu.284) [HER2/neu peptide, position 284, 8 amino acids], -0.0002 ratio to standard peptide; for SPMCKGSRCW (also called Her2/neu.196) [HER2/neu peptide, position 196, 10 amino acids], 0.0021 ratio to standard peptide.
Under RPEDECVGEGL (also called Her2/neu.499) [HER2/neu peptide, position 499, 11 amino acids] stands -0.0002 ratio to standard peptide; under PPICTIDV (also called Her2/neu.944) [HER2/neu peptide, position 944, 8 amino acids], -0.0006 ratio to standard peptide; under SPREGPLPAA (also called Her2/neu.1151) [HER2/neu peptide, position 1151, 10 amino acids], 0.46 ratio to standard peptide.
For PPSTFKGTPTA (also called Her2/neu.1233) [HER2/neu peptide, position 1233, 11 amino acids] the value was -0.0003 ratio to standard peptide; for PPSPREGPL (also called Her2/neu.1149) [HER2/neu peptide, position 1149, 9 amino acids], 0.0054 ratio to standard peptide; for QPHPPPAFSPA (also called Her2/neu.1206) [HER2/neu peptide, position 1206, 11 amino acids], 0.0003 ratio to standard peptide.
As to VPLPSETDGYV (also called Her2/neu.1118) [HER2/neu peptide, position 1118, 11 amino acids], the relative binding ratio was -0.0002 ratio to standard peptide.
For VPLQRLRI (also called Her2/neu.94) [HER2/neu peptide, position 94, 8 amino acids] the value was 0.002 ratio to standard peptide; for SPAFDNLYYW (also called Her2/neu.1214) [HER2/neu peptide, position 1214, 10 amino acids], 0.0001 ratio to standard peptide.
Consider NPEYLTPQGGA (also called Her2/neu.1193) [HER2/neu peptide, position 1193, 11 amino acids], for which the relative binding ratio is -0.0003 ratio to standard peptide.
Under SPGGLREL (also called Her2/neu.133) [HER2/neu peptide, position 133, 8 amino acids] stands 0.055 ratio to standard peptide.
For MPNPEGRYTF (also called Her2/neu.282) [HER2/neu peptide, position 282, 10 amino acids], the relative binding ratio was 0.0001 ratio to standard peptide.
With SPLTSIISAV (also called Her2/neu.649) [HER2/neu peptide, position 649, 10 amino acids], the relative binding ratio is 0.09 ratio to standard peptide.
For NPQLCYQDTIL (also called Her2/neu.158) [HER2/neu peptide, position 158, 11 amino acids] the value was -0.0002 ratio to standard peptide; for QPQNGSVTCF (also called Her2/neu.568) [HER2/neu peptide, position 568, 10 amino acids], 0.0004 ratio to standard peptide; for B2, 0.009 ratio to standard peptide.
Under SPYVSRLLGI (also called Her2/neu.779) [HER2/neu peptide, position 779, 10 amino acids] stands 0.1 ratio to standard peptide.
For SPGGLRELQL (also called Her2/neu.133) [HER2/neu peptide, position 133, 10 amino acids] the value was 0.058 ratio to standard peptide; for SPLTSIISA (also called Her2/neu.649) [HER2/neu peptide, position 649, 9 amino acids], 0.015 ratio to standard peptide.
Turning to QPPICTIDVYM (also called Her2/neu.943) [HER2/neu peptide, position 943, 11 amino acids], the relative binding ratio was 0.002 ratio to standard peptide.
Turning to MPYGCLLDHV (also called Her2/neu.801) [HER2/neu peptide, position 801, 10 amino acids], the relative binding ratio was 0.0085 ratio to standard peptide.
With NPQLCYQDTI (also called Her2/neu.158) [HER2/neu peptide, position 158, 10 amino acids], the relative binding ratio is 0.0001 ratio to standard peptide.
In the case of PPGAASTQV (also called Her2/neu.17) [HER2/neu peptide, position 17, 9 amino acids], the relative binding ratio was 0.0001 ratio to standard peptide.
Under QPPICTIDV (also called Her2/neu.943) [HER2/neu peptide, position 943, 9 amino acids] stands 0.0001 ratio to standard peptide; under SPKANKEIL (also called Her2/neu.760) [HER2/neu peptide, position 760, 9 amino acids], 0.12 ratio to standard peptide.
For PPERGAPPSTF (also called Her2/neu.1227) [HER2/neu peptide, position 1227, 11 amino acids] the value was -0.0003 ratio to standard peptide; for TPVTGASPGGL (also called Her2/neu.127) [HER2/neu peptide, position 127, 11 amino acids], -0.0002 ratio to standard peptide.
For the molecule PPICTIDVYM (also called Her2/neu.944) [HER2/neu peptide, position 944, 10 amino acids], the relative binding ratio was 0.0004 ratio to standard peptide.
On to SPGKNGVV (also called Her2/neu.1174) [HER2/neu peptide, position 1174, 8 amino acids], for which the relative binding ratio is 0.023 ratio to standard peptide.
Turning to PPICTIDVYMI (also called Her2/neu.944) [HER2/neu peptide, position 944, 11 amino acids], the relative binding ratio was 0.0064 ratio to standard peptide.
Under B3 stands 0.0001 ratio to standard peptide.
Under PPPAFSPAF (also called Her2/neu.1209) [HER2/neu peptide, position 1209, 9 amino acids] stands 0.0002 ratio to standard peptide.
For SPLAPSEGA (also called Her2/neu.1073) [HER2/neu peptide, position 1073, 9 amino acids], the relative binding ratio was 0.003 ratio to standard peptide.
Under TPTAENPEYL (also called Her2/neu.1240) [HER2/neu peptide, position 1240, 10 amino acids] stands 0.0002 ratio to standard peptide.
